# From publication PMC3518760 (Nature, 2012)
# Where a chain is given by its changes, count along the chain named. In names and notes the source's numbering stands.
# B1: mouse cadherin-23 EC1+2 (domain or fragment)
# chain: MQVNRLPFFTNHFFDTYLLISEDTPVGSSVTQLLARDMDNDPLVFGVSGEEASRFFAVEPDTGVVWLRQPLDRETKSEFTVEFSVSDHQGVITRKVNIQVGDVNDNAPTFHNQPYSVRIPENTPVGTPIFIVNATDPDLGAGGSVLYSFQPPSPFFAIDSARGIVTVIQELDYEVTQAYQLTVNATDQDKTRPLSTLANLAIIITD
# B2: mouse cadherin-23 EC1+2 L145G (domain or fragment)
# chain: B1 chain with L146G
# B3: mouse cadherin-23 EC1+2 S47P (domain or fragment)
# chain: B1 chain with S48P
# Experiments:
# [1] = biological target: mouse protocadherin-15 EC1+2 R113G (mouse) (UniProt Q99PJ1); assay: ITC
# [2] = biological target: mouse protocadherin-15 EC1+2 I22A (mouse, UniProt Q99PJ1-18 27-259, I22A); assay: ITC
# [3] = biological target: T1, mouse protocadherin-15 EC1+2 (mouse, UniProt Q99PJ1-18 27-259); assay: ITC
# [4] = biological target: T1, mouse protocadherin-15 EC1+2; assay: crystal structure
molecule,measurement,setting,value
mouse cadherin-23 EC1+2 (from UniProt Q99PF4 24-228) (domain or fragment),Kd,[1],> 20 µM
B1,Kd,[2],> 100 µM
same,Kd,[3],2.9 µM
same,dH,[3],7.08 kcal/mol
same,stoichiometry N,[3],0.88
B2,Kd,[3],> 30 µM
B3,binding result,[4],binds
